7 molecules from US20090226432A1 (MICROMET, published 2009) can be followed below.

The target in assay [1] is T1, soluble human CEA antigen (human, UniProt P06731 35-685, limits assumed, biotinylated with EZ-Link Sulfo NHS-LC-LC-Biotin in the ELISA (not in the cytotoxicity competition assays)).
T1 construct: also called soluble CEA; soluble biotinylated human CEA (Abcam)
T1 sequence: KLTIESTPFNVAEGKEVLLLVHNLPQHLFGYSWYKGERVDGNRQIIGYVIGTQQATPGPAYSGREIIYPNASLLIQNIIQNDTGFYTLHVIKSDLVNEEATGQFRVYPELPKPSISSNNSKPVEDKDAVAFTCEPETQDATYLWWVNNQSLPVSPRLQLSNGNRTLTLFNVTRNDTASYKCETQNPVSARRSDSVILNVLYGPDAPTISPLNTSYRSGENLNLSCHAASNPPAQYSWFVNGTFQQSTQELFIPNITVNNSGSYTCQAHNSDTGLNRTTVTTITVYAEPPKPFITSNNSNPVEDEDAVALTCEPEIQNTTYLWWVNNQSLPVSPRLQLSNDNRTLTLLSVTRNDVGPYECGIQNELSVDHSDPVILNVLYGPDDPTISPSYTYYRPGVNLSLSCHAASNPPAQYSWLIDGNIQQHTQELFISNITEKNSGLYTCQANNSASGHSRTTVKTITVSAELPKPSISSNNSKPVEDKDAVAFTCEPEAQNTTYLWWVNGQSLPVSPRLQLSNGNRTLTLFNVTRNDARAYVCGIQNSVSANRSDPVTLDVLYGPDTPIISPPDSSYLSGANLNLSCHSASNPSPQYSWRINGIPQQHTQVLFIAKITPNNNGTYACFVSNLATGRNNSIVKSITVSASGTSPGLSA
Put plainly: direct ELISA, biotinylated soluble CEA on streptavidin plate; 0.5 and 5 ug/ml. On the procedure:
The direct ELISA to determine the specificity of CEA×CD3 bispecific single chain antibody against soluble human CEA was carried out according to standard procedures. Briefly, 50 μl/well PBS or soluble biotinylated human CEA (Abcam; 5 μg/ml in 1×PBS) were immobilized on a 96-well streptavidin-coated ELISA plate (Nunc) by incubating at 4° C. for about 16 hours. After washing with 200 μl water per well 200 μl of blocking solution (PBS/3% BSA) was added. After blocking for 1 h at room temperature the blocking solution was removed. All subsequent washing (200 μl/well of 1×PBS/0.05% (v/v) Tween20) and incubation steps were performed at room temperature. After washing once, the CEAI VHVL×SEQ ID NO.77 VHVL (SEQ ID NO. 8; anti-CEA part derived from mAb A5B7), CEAII VHVL×SEQ ID NO.77 VHVL (SEQ ID NO. 10; anti-CEA part derived from mAb T84.66), and CEAIII VHVL×SEQ ID NO.77 VHVL (SEQ ID NO. 14; anti-CEA part derived from mAb MFE-23) bispecific single chain antibodies, and mouse monoclonal antibody CEA/CD66 Ab-3 (Col-1; Dunn) were incubated in different concentrations (0.5 μg/ml and 5 μg/ml in 1×PBS; 50 μl/well) for 1 hour. 1×PBS (50 μl/well) was added as a control for unspecific binding. 3 washing steps were followed by adding 50 μl/well Penta-His IgG (Qiagen; 2 μg/ml in 1×PBS) for detection of the His-tagged bispecific single chain antibodies. Subsequently, the wells were washed 3 times and incubated with 50 μl of a horseradish peroxidase-labelled goat anti-mouse Fc gamma-specific antibody (Jackson ImmuneResearch; 1:1000 in 1×PBS) for 1 hour. After washing 3 times the ELISA was developed by adding ABTS substrate solution (Roche) and the absorbance was measured at a wavelength of 405 nm.
Background: An ELISA detects its analyte on a solid surface through an enzyme-linked reagent.

The target in assay [2] is T1, soluble human CEA antigen. Briefly: refers to Examples 2 and 3 (flow cytometry, ELISA). On the technique in general: Flow cytometry measures light scatter and fluorescence of single cells or particles in a stream.
In assay [3] the target is T1, soluble human CEA antigen. Put plainly: refers to the ELISA of FIG. 2.

B1: CEA I VHVL x SEQ ID NO. 77 VHVL (bispecific antibody)
chain: QVQLQESGGGLVQPGGSLRLSCATSGFTFTDYYMNWVRQPPGKALEWLGFIGNKANGYTTEYSASVKGRFTISRDKSQSILYLQMNTLRAEDSATYYCTRDRGLRFYFDYWGQGTTVTVSSGGGGSGGGGSGGGGSDIELTQSPAILSASPGEKVTMTCRASSSVTYIHWYQQKPGSSPKSWIYATSNLASGVPARFSGSGSGTSYSLTISRVEAEDAATYYCQHWSSKPPTFGGGTKLEIKSGGGGSDVQLVQSGAEVKKPGASVKVSCKASGYTFTRYTMHWVRQAPGQGLEWIGYINPSRGYTNYADSVKGRFTITTDKSTSTAYMELSSLRSEDTATYYCARYYDDHYCLDYWGQGTTVTVSSGEGTSTGSGGSGGSGGADDIVLTQSPATLSLSPGERATLSCRASQSVSYMNWYQQKPGKAPKRWIYDTSKVASGVPARFSGSGSGTDYSLTINSLEAEDAATYYCQQWSSNPLTFGGGTKVEIK
notes: Bispecific single chain antibody; also called CEA I-HL
For the molecule B1, the binding result in assay [1] was “binds”.

B2: CEA III VLVH x SEQ ID NO. 77 VHVL (bispecific antibody)
chain: ENVLTQSPAIMSASPGEKVTITCSASSSVSYMHWFQQKPGTSPKLWIYSTSNLASGVPARFSGSGSGTSYSLTISRMEAEDAATYYCQQRSSYPLTFGAGTKLELKGGGGSGGGGSGGGGSQVKLQQSGAELVRSGTSVKLSCTASGFNIKDSYMHWLRQGPEQGLEWIGWIDPENGDTEYAPKFQGKATFTTDTSSNTAYLQLSSLTSEDTAVYYCNEGTPTGPYYFDYWGQGTTVTVSSGGGGSDVQLVQSGAEVKKPGASVKVSCKASGYTFTRYTMHWVRQAPGQGLEWIGYINPSRGYTNYADSVKGRFTITTDKSTSTAYMELSSLRSEDTATYYCARYYDDHYCLDYWGQGTTVTVSSGEGTSTGSGGSGGSGGADDIVLTQSPATLSLSPGERATLSCRASQSVSYMNWYQQKPGKAPKRWIYDTSKVASGVPARFSGSGSGTDYSLTINSLEAEDAATYYCQQWSSNPLTFGGGTKVEIK
notes: Bispecific single chain antibody; anti-CEA part from mAb MFE-23; also called CEA III-LH
In the case of B2, in assay [2], the binding result is reported as “binds”.

B3: CEA III VHVL x SEQ ID NO. 77 VHVL (bispecific antibody)
chain: QVKLQQSGAELVRSGTSVKLSCTASGFNIKDSYMHWLRQGPEQGLEWIGWIDPENGDTEYAPKFQGKATFTTDTSSNTAYLQLSSLTSEDTAVYYCNEGTPTGPYYFDYWGQGTTVTVSSGGGGSGGGGSGGGGSENVLTQSPAIMSASPGEKVTITCSASSSVSYMHWFQQKPGTSPKLWIYSTSNLASGVPARFSGSGSGTSYSLTISRMEAEDAATYYCQQRSSYPLTFGAGTKLELKSGGGGSDVQLVQSGAEVKKPGASVKVSCKASGYTFTRYTMHWVRQAPGQGLEWIGYINPSRGYTNYADSVKGRFTITTDKSTSTAYMELSSLRSEDTATYYCARYYDDHYCLDYWGQGTTVTVSSGEGTSTGSGGSGGSGGADDIVLTQSPATLSLSPGERATLSCRASQSVSYMNWYQQKPGKAPKRWIYDTSKVASGVPARFSGSGSGTDYSLTINSLEAEDAATYYCQQWSSNPLTFGGGTKVEIK
notes: Bispecific single chain antibody; anti-CEA part from mAb MFE-23; also called CEA III-HL
In the case of B3, in assay [1], the binding result is listed as “binds”.

B4: SEQ ID NO. 77 VHVL x CEA I VLVH (bispecific antibody)
chain: DVQLVQSGAEVKKPGASVKVSCKASGYTFTRYTMHWVRQAPGQGLEWIGYINPSRGYTNYADSVKGRFTITTDKSTSTAYMELSSLRSEDTATYYCARYYDDHYCLDYWGQGTTVTVSSGEGTSTGSGGSGGSGGADDIVLTQSPATLSLSPGERATLSCRASQSVSYMNWYQQKPGKAPKRWIYDTSKVASGVPARFSGSGSGTDYSLTINSLEAEDAATYYCQQWSSNPLTFGGGTKVEIKSGGGGSDIELTQSPAILSASPGEKVTMTCRASSSVTYIHWYQQKPGSSPKSWIYATSNLASGVPARFSGSGSGTSYSLTISRVEAEDAATYYCQHWSSKPPTFGGGTKLEIKGGGGSGGGGSGGGGSQVQLQESGGGLVQPGGSLRLSCATSGFTFTDYYMNWVRQPPGKALEWLGFIGNKANGYTTEYSASVKGRFTISRDKSQSILYLQMNTLRAEDSATYYCTRDRGLRFYFDYWGQGTTVTVSS
notes: Bispecific single chain antibody, anti-CD3 part N-terminal, anti-CEA part from mAb A5B7
On to B4, for which the binding result in assay [3] is “binds”.

B5: CEA I VLVH x SEQ ID NO. 77 VHVL (bispecific antibody)
chain: DIELTQSPAILSASPGEKVTMTCRASSSVTYIHWYQQKPGSSPKSWIYATSNLASGVPARFSGSGSGTSYSLTISRVEAEDAATYYCQHWSSKPPTFGGGTKLEIKGGGGSGGGGSGGGGSQVQLQESGGGLVQPGGSLRLSCATSGFTFTDYYMNWVRQPPGKALEWLGFIGNKANGYTTEYSASVKGRFTISRDKSQSILYLQMNTLRAEDSATYYCTRDRGLRFYFDYWGQGTTVTVSSGGGGSDVQLVQSGAEVKKPGASVKVSCKASGYTFTRYTMHWVRQAPGQGLEWIGYINPSRGYTNYADSVKGRFTITTDKSTSTAYMELSSLRSEDTATYYCARYYDDHYCLDYWGQGTTVTVSSGEGTSTGSGGSGGSGGADDIVLTQSPATLSLSPGERATLSCRASQSVSYMNWYQQKPGKAPKRWIYDTSKVASGVPARFSGSGSGTDYSLTINSLEAEDAATYYCQQWSSNPLTFGGGTKVEIK
notes: Bispecific single chain antibody; anti-CEA part from murine mAb A5B7; also called CEA I-LH
Take B5: in assay [3], the binding result is “binds”.

B6: SEQ ID NO. 77 VHVL x CEA I VHVL (bispecific antibody)
chain: DVQLVQSGAEVKKPGASVKVSCKASGYTFTRYTMHWVRQAPGQGLEWIGYINPSRGYTNYADSVKGRFTITTDKSTSTAYMELSSLRSEDTATYYCARYYDDHYCLDYWGQGTTVTVSSGEGTSTGSGGSGGSGGADDIVLTQSPATLSLSPGERATLSCRASQSVSYMNWYQQKPGKAPKRWIYDTSKVASGVPARFSGSGSGTDYSLTINSLEAEDAATYYCQQWSSNPLTFGGGTKVEIKSGGGGSQVQLQESGGGLVQPGGSLRLSCATSGFTFTDYYMNWVRQPPGKALEWLGFIGNKANGYTTEYSASVKGRFTISRDKSQSILYLQMNTLRAEDSATYYCTRDRGLRFYFDYWGQGTTVTVSSGGGGSGGGGSGGGGSDIELTQSPAILSASPGEKVTMTCRASSSVTYIHWYQQKPGSSPKSWIYATSNLASGVPARFSGSGSGTSYSLTISRVEAEDAATYYCQHWSSKPPTFGGGTKLEIK
notes: as for B4
Take B6: in assay [3], the binding result was “binds”.

B7: CEA II VHVL x SEQ ID NO. 77 VHVL (bispecific antibody)
chain: EVQLQQSGAELVEPGASVKLSCTASGFNIKDTYMHWVKQRPEQGLEWIGRIDPANGNSKYVPKFQGKATITADTSSNTAYLQLTSLTSEDTAVYYCAPFGYYVSDYAMAYWGQGTSVTVSSGGGGSGGGGSGGGGSDIVLTQSPASLAVSLGQRATMSCRAGESVDIFGVGFLHWYQQKPGQPPKLLIYRASNLESGIPVRFSGTGSRTDFTLIIDPVEADDVATYYCQQTNEDPYTFGGGTKLEIKSGGGGSDVQLVQSGAEVKKPGASVKVSCKASGYTFTRYTMHWVRQAPGQGLEWIGYINPSRGYTNYADSVKGRFTITTDKSTSTAYMELSSLRSEDTATYYCARYYDDHYCLDYWGQGTTVTVSSGEGTSTGSGGSGGSGGADDIVLTQSPATLSLSPGERATLSCRASQSVSYMNWYQQKPGKAPKRWIYDTSKVASGVPARFSGSGSGTDYSLTINSLEAEDAATYYCQQWSSNPLTFGGGTKVEIK
notes: Bispecific single chain antibody; anti-CEA part from mAb T84.66; also called CEA II HL
B7: the binding result in assay [1] is given as “binds”.
